# Test results: FireProtDB (doi:10.1002/pro.5560060315)
# Details: Saccharomyces cerevisiae (strain ATCC 204508 / S288c), CD
# [1] = pH 3, Thermal, acetate 0.1 M, reversible: yes (50-75%)
# [2] = pH 3.25, Thermal, acetate 0.1 M, reversible: yes (50-75%)
# [3] = pH 3.5, Thermal, acetate 0.1 M, reversible: yes
# [4] = pH 3.75, Thermal, acetate 0.1 M, reversible: yes
# [5] = pH 4, Thermal, acetate 0.1 M, reversible: yes
# [6] = pH 4.25, Thermal, acetate 0.1 M, reversible: yes
# [7] = pH 4.5, 25 °C, Thermal, acetate 0.1 M, reversible: yes
# [8] = pH 4.5, Thermal, acetate 0.1 M, reversible: yes
# [9] = pH 4.75, Thermal, acetate 0.1 M, reversible: yes
# [10] = pH 5, Thermal, acetate 0.1 M, reversible: yes
# [11] = pH 7.5, 25 °C, GdnHCl, Tris-HCl 20 mM, NaCl 40 mM, reversible: yes
# [12] = pH 3, Thermal, acetate 0.1 M, reversible: yes, structure 1YCC
# [13] = pH 3.25, Thermal, acetate 0.1 M, reversible: yes, structure 1YCC
# [14] = pH 3.5, Thermal, acetate 0.1 M, reversible: yes, structure 1YCC
# [15] = pH 3.75, Thermal, acetate 0.1 M, reversible: yes, structure 1YCC
# [16] = pH 4, Thermal, acetate 0.1 M, reversible: yes, structure 1YCC
# [17] = pH 4.25, Thermal, acetate 0.1 M, reversible: yes, structure 1YCC
# [18] = pH 4.5, Thermal, acetate 0.1 M, reversible: yes, structure 1YCC
# [19] = pH 4.75, Thermal, acetate 0.1 M, reversible: yes, structure 1YCC
# [20] = pH 5, Thermal, acetate 0.1 M, reversible: yes, structure 1YCC
# [21] = pH 7.5, 25 °C, GdnHCl, Tris-HCl 20 mM, NaCl 40 mM, reversible: yes, structure 1YCC
# [22] = pH 3, Thermal, acetate 0.1 M, reversible: yes (50-75%), structure 1YCC
# [23] = pH 4.5, 25 °C, Thermal, acetate 0.1 M, reversible: yes, structure 1YCC
# [24] = pH 5.25, Thermal, acetate 0.1 M, reversible: yes, structure 1YCC
# Sequence of Cytochrome c isoform 1 wild type, P00044 (P00044 whole entry, canonical isoform): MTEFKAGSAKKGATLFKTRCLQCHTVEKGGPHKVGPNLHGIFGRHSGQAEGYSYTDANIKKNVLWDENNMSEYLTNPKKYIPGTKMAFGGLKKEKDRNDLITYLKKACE
# Sequence of Cytochrome c isoform 1 K79I, P00044 (P00044 whole entry K79I, canonical isoform): as the sequence (P00044 whole entry, canonical isoform) above, with K79I counted along it
# Sequence of Cytochrome c isoform 1 K79V, P00044 (P00044 whole entry K79V, canonical isoform): as the sequence (P00044 whole entry, canonical isoform) above, with K79V counted along it
substance,measurement,setting,value
"Cytochrome c isoform 1 wild type, P00044",Tm,[1],21.5 °C
same,unfolding enthalpy (van 't Hoff),[1],39.6 kcal/mol
same,Tm,[2],22.6 °C
same,unfolding enthalpy (van 't Hoff),[2],42 kcal/mol
same,Tm,[3],30.7 °C
same,unfolding enthalpy (van 't Hoff),[3],54.2 kcal/mol
same,Tm,[4],34.9 °C
same,unfolding enthalpy (van 't Hoff),[4],62.3 kcal/mol
same,Tm,[5],40.7 °C
same,unfolding enthalpy (van 't Hoff),[5],69.8 kcal/mol
same,Tm,[6],43.1 °C
same,unfolding enthalpy (van 't Hoff),[6],73.7 kcal/mol
same,heat capacity change of unfolding,[7],1.4 kcal/mol/K
same,unfolding enthalpy (van 't Hoff),[7],45.4 kcal/mol
same,unfolding free energy,[7],3.7 kcal/mol
same,Tm,[8],45 °C
same,unfolding enthalpy (van 't Hoff),[8],73.4 kcal/mol
same,Tm,[9],48.6 °C
same,unfolding enthalpy (van 't Hoff),[9],79.6 kcal/mol
same,Tm,[10],52.7 °C
same,unfolding enthalpy (van 't Hoff),[10],81.9 kcal/mol
same,denaturant m value,[11],4.87 kcal/mol/M
same,unfolding free energy,[11],5.66 kcal/mol
"Cytochrome c isoform 1 K79I, P00044",Tm,[12],22.3 °C
same,"change of melting temperature, mutant - wild type (higher = more stable)",[12],0.8 °C
same,unfolding enthalpy (van 't Hoff),[12],33 kcal/mol
same,Tm,[13],26.7 °C
same,"change of melting temperature, mutant - wild type (higher = more stable)",[13],4.1 °C
same,unfolding enthalpy (van 't Hoff),[13],40.8 kcal/mol
same,Tm,[14],31.7 °C
same,"change of melting temperature, mutant - wild type (higher = more stable)",[14],1 °C
same,unfolding enthalpy (van 't Hoff),[14],51.4 kcal/mol
same,Tm,[15],35.5 °C
same,"change of melting temperature, mutant - wild type (higher = more stable)",[15],0.6 °C
same,unfolding enthalpy (van 't Hoff),[15],57.7 kcal/mol
same,Tm,[16],38.7 °C
same,"change of melting temperature, mutant - wild type (higher = more stable)",[16],-2 °C
same,unfolding enthalpy (van 't Hoff),[16],61.1 kcal/mol
same,Tm,[17],41.3 °C
same,"change of melting temperature, mutant - wild type (higher = more stable)",[17],-1.8 °C
same,unfolding enthalpy (van 't Hoff),[17],67.4 kcal/mol
same,Tm,[18],45.2 °C
same,"change of melting temperature, mutant - wild type (higher = more stable)",[18],0.2 °C
same,unfolding enthalpy (van 't Hoff),[18],69.1 kcal/mol
same,Tm,[19],46.9 °C
same,"change of melting temperature, mutant - wild type (higher = more stable)",[19],-1.7 °C
same,unfolding enthalpy (van 't Hoff),[19],73.8 kcal/mol
same,Tm,[20],47.7 °C
same,"change of melting temperature, mutant - wild type (higher = more stable)",[20],-5 °C
same,unfolding enthalpy (van 't Hoff),[20],77.4 kcal/mol
same,ddG of mutation (higher = less stable),[21],1.19 kcal/mol
same,denaturant m value,[21],4.29 kcal/mol/M
same,unfolding free energy,[21],4.47 kcal/mol
"Cytochrome c isoform 1 K79W, P00044",Tm,[22],22.8 °C
same,"change of melting temperature, mutant - wild type (higher = more stable)",[22],1.3 °C
same,unfolding enthalpy (van 't Hoff),[22],43.5 kcal/mol
same,Tm,[13],22.8 °C
same,"change of melting temperature, mutant - wild type (higher = more stable)",[13],0.2 °C
same,unfolding enthalpy (van 't Hoff),[13],49.8 kcal/mol
same,Tm,[14],27.5 °C
same,"change of melting temperature, mutant - wild type (higher = more stable)",[14],-3.2 °C
same,unfolding enthalpy (van 't Hoff),[14],50.5 kcal/mol
same,Tm,[15],29.2 °C
same,"change of melting temperature, mutant - wild type (higher = more stable)",[15],-5.7 °C
same,unfolding enthalpy (van 't Hoff),[15],58.6 kcal/mol
same,Tm,[17],31.5 °C
same,"change of melting temperature, mutant - wild type (higher = more stable)",[17],-11.6 °C
same,unfolding enthalpy (van 't Hoff),[17],68.5 kcal/mol
same,ddG of mutation (higher = less stable),[23],1.6 kcal/mol
same,heat capacity change of unfolding,[23],1.15 kcal/mol/K
same,unfolding enthalpy (van 't Hoff),[23],51.4 kcal/mol
same,unfolding free energy,[23],2.1 kcal/mol
same,Tm,[18],36.1 °C
same,"change of melting temperature, mutant - wild type (higher = more stable)",[18],-8.9 °C
same,unfolding enthalpy (van 't Hoff),[18],64.2 kcal/mol
same,Tm,[19],39 °C
same,"change of melting temperature, mutant - wild type (higher = more stable)",[19],-9.6 °C
same,unfolding enthalpy (van 't Hoff),[19],71.4 kcal/mol
same,Tm,[20],47.6 °C
same,"change of melting temperature, mutant - wild type (higher = more stable)",[20],-5.1 °C
same,unfolding enthalpy (van 't Hoff),[20],78 kcal/mol
same,Tm,[24],49.3 °C
same,unfolding enthalpy (van 't Hoff),[24],76.5 kcal/mol
same,ddG of mutation (higher = less stable),[21],1.43 kcal/mol
same,denaturant m value,[21],4.16 kcal/mol/M
same,unfolding free energy,[21],4.23 kcal/mol
"Cytochrome c isoform 1 K79V, P00044",Tm,[12],22.7 °C
same,"change of melting temperature, mutant - wild type (higher = more stable)",[12],1.2 °C
same,unfolding enthalpy (van 't Hoff),[12],37 kcal/mol
same,Tm,[13],28.7 °C
same,"change of melting temperature, mutant - wild type (higher = more stable)",[13],6.1 °C
same,unfolding enthalpy (van 't Hoff),[13],46.3 kcal/mol
same,Tm,[14],31.4 °C
same,"change of melting temperature, mutant - wild type (higher = more stable)",[14],0.7 °C
same,unfolding enthalpy (van 't Hoff),[14],47.3 kcal/mol
same,Tm,[15],36.6 °C
same,"change of melting temperature, mutant - wild type (higher = more stable)",[15],1.7 °C
same,unfolding enthalpy (van 't Hoff),[15],58.5 kcal/mol
same,Tm,[16],38.9 °C
same,"change of melting temperature, mutant - wild type (higher = more stable)",[16],-1.8 °C
same,unfolding enthalpy (van 't Hoff),[16],60.2 kcal/mol
same,Tm,[17],42.9 °C
same,"change of melting temperature, mutant - wild type (higher = more stable)",[17],-0.2 °C
same,unfolding enthalpy (van 't Hoff),[17],64.8 kcal/mol
same,ddG of mutation (higher = less stable),[23],-0.1 kcal/mol
same,heat capacity change of unfolding,[23],1.5 kcal/mol/K
same,unfolding enthalpy (van 't Hoff),[23],40 kcal/mol
same,unfolding free energy,[23],3.8 kcal/mol
same,Tm,[18],46.7 °C
same,"change of melting temperature, mutant - wild type (higher = more stable)",[18],1.7 °C
same,unfolding enthalpy (van 't Hoff),[18],72.5 kcal/mol
same,Tm,[20],49.5 °C
same,"change of melting temperature, mutant - wild type (higher = more stable)",[20],-3.2 °C
same,unfolding enthalpy (van 't Hoff),[20],75.5 kcal/mol
same,ddG of mutation (higher = less stable),[21],1.38 kcal/mol
same,denaturant m value,[21],4.01 kcal/mol/M
same,unfolding free energy,[21],4.28 kcal/mol
